In patent US6676943:

Target: human complement protein C3, P01024
Sequence (P01024 whole entry, looked up): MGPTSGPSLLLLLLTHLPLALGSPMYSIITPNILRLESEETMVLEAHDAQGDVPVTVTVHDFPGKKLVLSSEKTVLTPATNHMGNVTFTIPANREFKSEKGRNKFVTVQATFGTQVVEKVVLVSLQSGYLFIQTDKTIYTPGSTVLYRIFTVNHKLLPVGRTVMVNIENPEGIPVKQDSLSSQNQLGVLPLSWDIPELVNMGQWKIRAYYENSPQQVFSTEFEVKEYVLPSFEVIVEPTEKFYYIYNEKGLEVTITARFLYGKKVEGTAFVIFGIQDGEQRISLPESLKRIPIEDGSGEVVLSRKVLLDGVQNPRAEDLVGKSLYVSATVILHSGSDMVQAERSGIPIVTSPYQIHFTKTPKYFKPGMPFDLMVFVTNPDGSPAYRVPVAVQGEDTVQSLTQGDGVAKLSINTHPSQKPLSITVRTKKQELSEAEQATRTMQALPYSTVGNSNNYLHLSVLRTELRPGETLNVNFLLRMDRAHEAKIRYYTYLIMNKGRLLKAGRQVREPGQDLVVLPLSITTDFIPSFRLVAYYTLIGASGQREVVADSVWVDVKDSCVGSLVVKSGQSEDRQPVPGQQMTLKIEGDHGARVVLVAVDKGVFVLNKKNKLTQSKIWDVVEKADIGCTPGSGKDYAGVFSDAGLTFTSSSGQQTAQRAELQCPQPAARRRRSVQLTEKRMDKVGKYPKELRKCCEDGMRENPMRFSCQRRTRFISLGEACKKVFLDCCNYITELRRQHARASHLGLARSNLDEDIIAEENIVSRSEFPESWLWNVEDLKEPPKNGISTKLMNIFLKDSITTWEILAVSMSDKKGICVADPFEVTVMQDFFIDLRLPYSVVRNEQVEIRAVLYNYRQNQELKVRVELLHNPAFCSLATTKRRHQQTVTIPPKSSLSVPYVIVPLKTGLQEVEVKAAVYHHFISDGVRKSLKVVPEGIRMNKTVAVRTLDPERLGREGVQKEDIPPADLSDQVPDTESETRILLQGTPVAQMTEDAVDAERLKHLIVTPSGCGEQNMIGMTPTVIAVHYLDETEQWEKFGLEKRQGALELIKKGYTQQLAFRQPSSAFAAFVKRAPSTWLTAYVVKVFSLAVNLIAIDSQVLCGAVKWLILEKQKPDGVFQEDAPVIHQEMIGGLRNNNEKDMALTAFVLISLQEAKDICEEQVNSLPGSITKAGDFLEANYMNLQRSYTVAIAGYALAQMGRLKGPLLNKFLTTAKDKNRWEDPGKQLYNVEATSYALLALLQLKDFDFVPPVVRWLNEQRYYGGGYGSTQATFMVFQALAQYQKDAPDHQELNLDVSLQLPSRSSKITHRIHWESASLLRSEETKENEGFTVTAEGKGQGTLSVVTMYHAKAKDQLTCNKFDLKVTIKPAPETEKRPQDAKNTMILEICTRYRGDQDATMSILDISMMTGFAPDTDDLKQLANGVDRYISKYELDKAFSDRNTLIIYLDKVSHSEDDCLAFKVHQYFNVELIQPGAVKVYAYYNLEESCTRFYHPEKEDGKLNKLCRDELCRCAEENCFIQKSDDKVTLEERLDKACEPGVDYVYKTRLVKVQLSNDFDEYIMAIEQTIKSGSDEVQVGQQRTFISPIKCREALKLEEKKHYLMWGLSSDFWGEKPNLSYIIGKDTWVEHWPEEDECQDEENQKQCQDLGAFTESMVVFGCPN

B1: His-tagged CppA protein (recombinant C3-degrading proteinase of Streptococcus pneumoniae encoded by ORF3 / cppA) (protein)
chain: MNVNQIVRIIPTLKANNRKLNETFYIETLGMKALLEESAFLSLGDQTGLEKLVLEEAPSMRTRKVEGRKKLARLIVKVENPLEIEGILSKTDSIHRLYKGQNGYAFEIFSPEDDLILIHAEDDIASLVEVGEKPEFQTDLASISLSKFEISMELHLPTDIESFLESSEIGASLDFIPAQGQDLTVDNTVTWDLSMLKFLVNELDIASLRQKFESTEYFIPKSEKFFLGKDRNNVELWFEEV
B1 was tested, and the “C3 degradation (4 hrs at 37 C in PBS; reducing SDS-PAGE and Western Blot with polyclonal anti-C3)” value was “the protein degraded human C3 protein. Both α and β chains of C3 molecules were susceptible to degradation” and the “C3 degradation (4 hrs at 37 C in PBS; reducing SDS-PAGE and Western immunoblotting with polyclonal anti-C3)” value was “the samples that contained the expressed protein degraded C3 molecules ... the α chain was almost completely degraded while the β chain was partially degraded in the ORF3 samples”.
